Test results: patent US20190359687A1 (Bayer, published 2019)

Assays:
[1] = biological target: T1, Cynomolgus monkey glycophorin A on Cynomolgus monkey red blood cells (Cynomolgus monkey); assay: partition to Cyno RBC, human HemA plasma, 1 min;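 also: FVIII fusion spiked at 1 IU/mL into RBC suspension at whole-blood density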
T1 construct: whole, on cells; also called Cyno GPA; Cyno RBC
Protocol: (§1) To evaluate partition to cynomolgus monkey or human red blood cells, whole blood was draw from Cynomolgus monkey or normal human volunteers in to anticoagulant with 4% sodium citrate (Sigma, St Louis, Mo.). The red blood cells were purified by layering the whole blood on to ficoll followed by low speed centrifugation. The supernatant containing plasma, platelets and white blood cells was discarded and the red blood cell pellet was resuspended in 10 pellet volumes of PBS (50 mM Phosphate buffer, pH7.4, 150 mM NaCl). The red blood cells were then pelleted by slow speed centrifugation and the red blood cells re-suspended in 10 volumes of PBS. This washing step was repeated 4 more times and the red blood cells finally resuspended in a volume of plasma from Hemophilia patients with less than 1% of normal levels of FVIII (GeorgeKing Bio-Medical, Overland Park, Kans.) to generate a total volume equal to the initial blood volume such that the RBC density was equal to that of normal whole blood. BDD and RBC targeted FVIII molecules were then spiked into RBC suspension in HemA plasma at 1 IU/mL, and incubated at room temperature for 2-3 hours with gentle rotation. […] An additional control was performed in which BDD or RBC targeted FVIII molecules were added at 11U/ml into the same human hemophilia A plasma and incubated for 5 minutes and 180 mins. These samples were used to determine the input FVIII activity in the presence of plasma which was used to calculate the percentage of the molecule that was bound to RBC. All plasma samples were then assayed together for FVIII activity using the Coatest SP assay (DiaPharma, Columbus, Ohio). The assay was performed following the manufacturer's instructions in a 96-well plate format. […] The plate was incubated at 37° C. for 10 minutes with shaking between each reagent addition.

[2] = biological target: T1, Cynomolgus monkey glycophorin A on …; assay: partition to Cyno RBC, human HemA plasma, 5 min;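 also: FVIII fusion spiked at 1 IU/mL into RBC suspension at whole-blood density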
Protocol: as §1

[3] = biological target: T2, human glycophorin A on human red blood cells (human, UniProt P02724 20-150); assay: partition to human RBC, human HemA plasma, 1 min
T2 construct: whole, on cells; also called human GPA; huGPA
T2 sequence (looked up): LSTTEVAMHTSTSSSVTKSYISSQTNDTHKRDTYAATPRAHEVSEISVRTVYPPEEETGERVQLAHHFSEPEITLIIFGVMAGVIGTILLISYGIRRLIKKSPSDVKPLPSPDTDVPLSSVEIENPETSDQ
Protocol: (§2) The supernatant containing plasma, platelets and white blood cells was discarded and the red blood cell pellet was resuspended in 10 pellet volumes of PBS (50 mM Phosphate buffer, pH7.4, 150 mM NaCl). The red blood cells were then pelleted by slow speed centrifugation and the red blood cells re-suspended in 10 volumes of PBS. This washing step was repeated 4 more times and the red blood cells finally resuspended in a volume of plasma from Hemophilia patients with less than 1% of normal levels of FVIII (GeorgeKing Bio-Medical, Overland Park, Kans.) to generate a total volume equal to the initial blood volume such that the RBC density was equal to that of normal whole blood. BDD and RBC targeted FVIII molecules were then spiked into RBC suspension in HemA plasma at 1 IU/mL, and incubated at room temperature for 2-3 hours with gentle rotation. […] An additional control was performed in which BDD or RBC targeted FVIII molecules were added at 11U/ml into the same human hemophilia A plasma and incubated for 5 minutes and 180 mins. These samples were used to determine the input FVIII activity in the presence of plasma which was used to calculate the percentage of the molecule that was bound to RBC. All plasma samples were then assayed together for FVIII activity using the Coatest SP assay (DiaPharma, Columbus, Ohio). The assay was performed following the manufacturer's instructions in a 96-well plate format. […] The plate was incubated at 37° C. for 10 minutes with shaking between each reagent addition. […] The amount of FVIII activity in the plasma reflects the amount of unbound FVIII. The FVIII activity of the same molecule spiked in to Hemophilia A plasma alone (no RBC) and incubated for 5 minutes was normalized to 100%.

[4] = biological target: T2, human glycophorin A on human red blood …; assay: partition to human RBC, human HemA plasma, 5 min
Protocol: as §2

[5] = biological target: T1, Cynomolgus monkey glycophorin A on …; assay: partition to Cyno RBC, human HemA plasma, 15 min;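 also: FVIII fusion spiked at 1 IU/mL into RBC suspension at whole-blood density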
Protocol: as §1

[6] = biological target: T1, Cynomolgus monkey glycophorin A on …; assay: partition to Cyno RBC, human HemA plasma, 30 min;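 also: FVIII fusion spiked at 1 IU/mL into RBC suspension at whole-blood density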
[7] = biological target: T1, Cynomolgus monkey glycophorin A on …; assay: partition to Cyno RBC, human HemA plasma, 60 min;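 also: FVIII fusion spiked at 1 IU/mL into RBC suspension at whole-blood density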
[8] = biological target: T2, human glycophorin A on human red blood …; assay: partition to human RBC, human HemA plasma, 15 min
Protocol: as §2

[9] = biological target: T2, human glycophorin A on human red blood …; assay: partition to human RBC, human HemA plasma, 30 min
Protocol: as §2

[10] = biological target: T2, human glycophorin A on human red blood …; assay: partition to human RBC, human HemA plasma, 60 min
Protocol: as §2

[11] = biological target: T1, Cynomolgus monkey glycophorin A on …; assay: partition to Cyno RBC, human HemA plasma, 120 min;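 also: FVIII fusion spiked at 1 IU/mL into RBC suspension at whole-blood density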
[12] = biological target: T2, human glycophorin A on human red blood …; assay: partition to human RBC, human HemA plasma, 120 min
Protocol: as §2

[13] = biological target: T2, human glycophorin A on human red blood …; assay: partition to human RBC, human HemA plasma, 120 min; remark: listed apart in the source
Protocol: as §2

[14] = biological target: T2, human glycophorin A on human red blood …; assay: partition to human RBC, vWF deficient plasma, 1 min
[15] = biological target: T2, human glycophorin A on human red blood …; assay: partition to human RBC, vWF deficient plasma, 5 min
[16] = biological target: T2, human glycophorin A on human red blood …; assay: partition to human RBC, vWF deficient plasma, 15 min
[17] = biological target: T2, human glycophorin A on human red blood …; assay: partition to human RBC, vWF deficient plasma, 30 min
[18] = biological target: T2, human glycophorin A on human red blood …; assay: partition to human RBC, vWF deficient plasma, 60 min
[19] = biological target: T2, human glycophorin A on human red blood …; assay: partition to human RBC, vWF deficient plasma, 120 min
[20] = biological target: T3, glycophorin A peptide GP5 (human, biotin at the N-terminus); assay: Octet, GP5 peptide on the probe, fusion protein in solution, 1:1 fit
T3 construct: Residues 42 to 61 of the human glycophorin A extracellular domain
T3 peptide: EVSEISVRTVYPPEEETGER

% bound to Cyno RBC [1]: 0% | % bound to Cyno RBC [2]: -19.3% | percentage bound to human RBC [3]: 0% | percentage bound to human RBC [4]: 13.8% | % bound to Cyno RBC [5]: -12.5% | % bound to Cyno RBC [6]: -1.9% | % bound to Cyno RBC [7]: -9.8% | percentage bound to human RBC [8]: 16.3% | percentage bound to human RBC [9]: 20.5% | percentage bound to human RBC [10]: 37.1% | % bound to Cyno RBC [11]: -1.9% | percentage bound to human RBC [12]: 52.8% | percentage bound to human RBC [13]: 52.8% | percentage bound to human RBC [14]: 35.1% | percentage bound to human RBC [15]: 67.9% | percentage bound to human RBC [16]: 88.3% | percentage bound to human RBC [17]: 92.4% | percentage bound to human RBC [18]: 93.3% | percentage bound to human RBC [19]: 93% | Kd [20]: 13.3 nM | koff [20]: 0.00465 s⁻¹ | kon [20]: 351000 M⁻¹ s⁻¹
B1: TPP-8741 FVIII-scFv fusion protein (other)
chain: ATRRYYLGAVELSWDYMQSDLGELPVDARFPPRVPKSFPFNTSVVYKKTLFVEFTDHLFNIAKPRPPWMGLLGPTIQAEVYDTVVITLKNMASHPVSLHAVGVSYWKASEGAEYDDQTSQREKEDDKVFPGGSHTYVWQVLKENGPMASDPLCLTYSYLSHVDLVKDLNSGLIGALLVCREGSLAKEKTQTLHKFILLFAVFDEGKSWHSETKNSLMQDRDAASARAWPKMHTVNGYVNRSLPGLIGCHRKSVYWHVIGMGTTPEVHSIFLEGHTFLVRNHRQASLEISPITFLTAQTLLMDLGQFLLFCHISSHQHDGMEAYVKVDSCPEEPQLRMKNNEEAEDYDDDLTDSEMDVVRFDDDNSPSFIQIRSVAKKHPKTWVHYIAAEEEDWDYAPLVLAPDDRSYKSQYLNNGPQRIGRKYKKVRFMAYTDETFKTREAIQHESGILGPLLYGEVGDTLLIIFKNQASRPYNIYPHGITDVRPLYSRRLPKGVKHLKDFPILPGEIFKYKWTVTVEDGPTKSDPRCLTRYYSSFVNMERDLASGLIGPLLICYKESVDQRGNQIMSDKRNVILFSVFDENRSWYLTENIQRFLPNPAGVQLEDPEFQASNIMHSINGYVFDSLQLSVCLHEVAYWYILSIGAQTDFLSVFFSGYTFKHKMVYEDTLTLFPFSGETVFMSMENPGLWILGCHNSDFRNRGMTALLKVSSCDKNTGDYYEDSYEDISAYLLSKNNAIEPRSFSQNGGGGSTGGTGGSSGGGTGSGGGGTGGSGGTDIQLTQSPSFLSASVGDRVTITCRASSSVRYIYWFQQKPGKAPKLLIYATSFRQSGVPSRFSGSGSGTEYTLTISSLQPEDFATYYCHQRNSFPYTFGQGTKLEIKGGGGSGGGGSGGGGSGGGGSEVQLVQSGAEVKKPGASVKVSCKASGYTFTTYAIHWVRQAPGQGLEWMGYINPSSGYTRYNPKFKGRVTMTRDKSTSTAYMELRSLRSDDTAVYYCWTGTRDYWGQGTTVTVSSGGGGSQNPPVLKRHQREITRTTLQSDQEEIDYDDTISVEMKKEDFDIYDEDENQSPRSFQKKTRHYFIAAVERLWDYGMSSSPHVLRNRAQSGSVPQFKKVVFQEFTDGSFTQPLYRGELNEHLGLLGPYIRAEVEDNIMVTFRNQASRPYSFYSSLISYEEDQRQGAEPRKNFVKPNETKTYFWKVQHHMAPTKDEFDCKAWAYFSDVDLEKDVHSGLIGPLLVCHTNTLNPAHGRQVTVQEFALFFTIFDETKSWYFTENMERNCRAPCNIQMEDPTFKENYRFHAINGYIMDTLPGLVMAQDQRIRWYLLSMGSNENIHSIHFSGHVFTVRKKEEYKMALYNLYPGVFETVEMLPSKAGIWRVECLIGEHLHAGMSTLFLVYSNKCQTPLGMASGHIRDFQITASGQYGQWAPKLARLHYSGSINAWSTKEPFSWIKVDLLAPMIIHGIKTQGARQKFSSLYISQFIIMYSLDGKKWQTYRGNSTGTLMVFFGNVDSSGIKHNIFNPPIIARYIRLHPTHYSIRSTLRMELMGCDLNSCSMPLGMESKAISDAQITASSYFTNMFATWSPSKARLHLQGRSNAWRPQVNNPKEWLQVDFQKTMKVTGVTTQGVKSLLTSMYVKEFLISSSQDGHQWTLFFQNGKVKVFQGNQDSFTPVVNSLDPPLLTRYLRIHPQSWVHQIALRMEVLGCEAQDLY
notes: The entry is the mature protein; mostly a 2 chain molecule; also called BDD-Bdom scFv; PPB 6559
